Source: the supplement of paper PMC10567573

B1: SCNN1D (parent)
chain: FYRLYQDLETHRLPCTSRCPRPCR
B2: ZNF207 (parent)
chain: YQGGPPRPPMGMRPPVMSQGGRY

Variants of: B1
Test: protein stability index of a GFP-peptide fusion (GPS, HEK-293T) (PSI 1-6); higher = more stable
Settings: c terminus: a fixed tail appended
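Further: lentivirally expressed fusions sorted by FACS into six bins by GFP to DsRed ratio, PSI derived from sequencing read proportions per bin multiplied by bin number.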

Protein stability index of substitutions, site by site:
L8: N 3.07; F 2.58; C 2.08; Y 1.53; T 2.09; W 1.7; S 2.47; R 2.22; D 2.79; E 2.73; V 2.16; K 2.38; M 2.02; P 2.75; G 2.97; Q 2.11; I 2.41; H 2.97; A 2.38
R3: K 2.58; V 2.04; G 2.65; L 2; Y 1.66; N 2.22; H 2.38; S 2.42; F 2.32; T 2.65; M 2.09; P 3.04; A 2.32; C 1.98; D 2.71; E 2.63; Q 2.71; I 1.95
Y5: H 2.92; K 2.6; F 1.98; Q 2.81; V 1.88; M 2.29; W 2.08; N 3.29; G 3.16; A 4.45; C 2.13; L 3.17; P 3.49; D 3.64; R 2.02; S 2.57; E 3.17; I 1.76; T 2.8
H11: I 1.39; F 1.64; C 2.62; E 2.31; M 1.74; A 2.31; K 1.96; D 2.24; L 1.95
F1: W 2.91; I 2.12; A 2.87; P 3.59; T 3.46; E 3.71; K 3.37; V 2.13; R 2.92; Y 2.4; C 2.22; M 2.02; H 3.06; G 4.3; D 3.8; S 3.2; L 1.54; Q 2.71; N 3.47
Y2: L 1.55; I 2.27; W 2.75; S 2.49; P 2.85; Q 1.98; R 2.58; T 1.81; A 2.69; K 2.41; F 2.22; N 3.63; C 1.55; G 2.74; E 4.26; M 2.4; H 1.59; D 3.56; V 2.97
T10: H 2.34; K 2.47; P 2.03; I 2.44; G 2.19; V 1.52; D 2.82; E 2.31; Y 1.6; N 2.4; F 1.21; R 2.88; M 1.86; W 2.05; S 1.6; Q 2.3; L 2.29; C 1.94; A 2.27
D7: W 3; F 2.22; Y 1.66; N 1.89; P 2.44; G 2.3; K 2.08; M 1.39; Q 1.48; L 1.76; S 1.98; I 3.21; E 2.3; C 1.72; R 2.89; V 1.98; A 1.32; H 1.5; T 2.09
L4: G 3.51; Q 3.24; H 3.23; K 3.68; S 3.46; F 2.04; R 2.49; P 3.47; C 1.56; E 4.13; A 3.02; Y 2.14; D 2.69; M 2.34; I 2.41; N 3.29; T 2.79; W 2.59
Q6: C 1.68; Y 1.52; P 1.38; V 1.65; W 3.33; A 2.21; F 1.79; D 2.52; K 1.35; E 3.63; N 2.28; G 1.7; H 1.96; T 1.72; S 2.23; M 1.91; I 2.31; R 1.96; L 1.54
E9: N 1.6; S 1.94; H 2.25; L 2.8; C 1.66; Q 1.83; W 1.08; R 1.58; T 1.65; V 2.29; F 1.46; K 2.38; M 2.87; D 2.99; A 2.06; P 2.05; Y 1.5; I 2.06; G 1.57

Variants of: B2
Test: as above
Settings: c terminus: native

Protein stability index: each site, then its substitutions
P14: K 1.43; C 2.27
G11: Y 2.14; I 2.95; H 1.43; S 1.52
Y23: P 2.82; V 1.5; D 3.11; L 1.66; T 1.9; S 2.43
R7: M 1.51; I 1.92; E 3.09; V 1.66; G 2.8; L 1.7; K 2.71; C 1.23
P9: L 1.28; K 1.73; R 1.87; W 4.64; A 1.83; I 2.91; T 2.49; V 1.68
P5: G 2.99; A 2.27; L 2.34; Q 2.62; C 1.61; I 1.71; E 2.81
R22: K 1.99; D 1.89; T 1.89; S 1.7; Q 1.43; F 1.21
P15: H 2.71; V 3.12; N 1.72; K 1.09; D 2.27; R 2.07; Q 2.65; F 1.58; T 1.61
Q19: T 2.39; E 2.17; R 2.17
R13: S 1.96; F 2.23; I 2.76
P6: Q 2.2; I 2.49; G 2.07; T 2.06; Y 1.78; E 2.95; C 1.96; H 2.23
G4: S 3.05; C 2.52; V 2.74; W 3.5; Q 3.54; R 2.51; E 2.69; M 1.46
G20: E 2.23; F 1.88; S 1.67; Y 1.68; R 2.75
P8: S 1.95; N 2.49; V 1.57
M17: C 4; F 2.17; W 1.67; K 2.85; V 1.49; L 1.52; G 2.42
G21: C 2.24; H 1.77; S 1.82
G3: Q 2.32; I 3.37; L 2.31; V 1.43; N 1.38; E 2.33; Y 2.42; S 1.47; K 2.89; H 1.5
M12: T 2.64; I 2.25; E 2.88
M10: N 1.82; Q 2.14; H 2.34; I 3.45; L 1.4
Q2: L 2.34; M 2.05; G 3.02; N 2.45; W 2.1; F 1.65; E 2.4
V16: F 2.18; C 2.44; K 2.93; W 1.75
S18: H 1.44; Y 1.58; D 2.04; E 2.72; R 2.2; W 2.56; P 2.08; N 2.13
Y1: H 2.91; W 2.49; S 1.67; G 3.87; C 3.27; R 3.21; Q 3.65; N 3.31; I 2.89; T 2.64
